From patent US20240076391A1 (ONCURIOUS, published 2024) come the findings set out here.

For test [1], the target named is T1, human CCR8 (human, UniProt P51685 1-355).
T1 construct: also called hCCR8
The test can be described thus: competition with VHH-65 for CCR8 binding.

Test [2] concerns the target T1, human CCR8. As to the kind of experiment: flow cytometry competition with FLAG3-His6 tagged parental VHH-74 on hCCR8 cells. The source says: (§1) Multiple His6 tagged VHH variants were thus generated and evaluated by flow cytometry f for their ability to compete for binding to hCCR8 with their FLAG3-His6 tagged parental counterparts. […] Variants that retained binding capacity where selected for further biophysical and chemical stability analysis.
Background: Flow cytometry measures light scatter and fluorescence of single cells or particles in a stream.

Test [3] deals with T1, human CCR8. The test can be described thus: flow cytometry competition with FLAG3-His6 tagged parental VHH-56 on hCCR8 cells.
Text: as §1

The target of test [4] is T2, N-terminal deletion human CCR8 (delta 18-3XHA) (human, UniProt P51685 20-355).
T2 construct: N-terminally deleted construct with 3XHA, expressed on transfected HEK293 cells
As to the kind of experiment: flow cytometry; an extracellular loop binder is defined in paragraph 224 as binding on hCCR8 cells and on human CCR8 (delta18-3XHA). The source says:
VHH clones resulting from the human CCR8 immunization and selection campaign were screened by means of flow cytometry for binding to human CCR8 (SEQ ID NO: 79) on stably transfected HEK293 cells or to HEK293 cells previously transfected with plasmid DNA encoding three different versions of human-mouse chimera CCR8 in which one of the extracellular loops (ECLs) was replaced with the mouse CCR8 counterpart, as well as to an N-terminal deletion human CCR8 (SEQ ID NO: 80, delta 18-3XHA herein after), in comparison to mock-transfected control cells. Comparison of the binding (median fluorescent intensity) signal of a given VHH clone across the seven cell lines enabled classification of said clone as an N-terminal human CCR8 binder (i.e. binding on hCCR8 cells, but not on human CCR8 (delta18-3XHA) or control cells) or as an extracellular loop hCCR8 binder (i.e. binding on hCCR8 cells and on human CCR8 (delta18-3XHA), but not on control cells). Binding comparison across the cell lines expressing human-mouse chimera CCR8 allowed to further classify extracellular hCCR8 binders as either ECL1, ECL2 or ECL3 binders.

Test [5] concerns the target T1, human CCR8. As to the kind of experiment: flow cytometry, human CCR8 stably expressed in HEK293 cells.
Test [6] has as its target T1, human CCR8. The test can be described thus: flow cytometry competition with FLAG3-His6 tagged parental VHH-65 on hCCR8 cells.
Text: as §1

T1 sequence (P51685 whole entry): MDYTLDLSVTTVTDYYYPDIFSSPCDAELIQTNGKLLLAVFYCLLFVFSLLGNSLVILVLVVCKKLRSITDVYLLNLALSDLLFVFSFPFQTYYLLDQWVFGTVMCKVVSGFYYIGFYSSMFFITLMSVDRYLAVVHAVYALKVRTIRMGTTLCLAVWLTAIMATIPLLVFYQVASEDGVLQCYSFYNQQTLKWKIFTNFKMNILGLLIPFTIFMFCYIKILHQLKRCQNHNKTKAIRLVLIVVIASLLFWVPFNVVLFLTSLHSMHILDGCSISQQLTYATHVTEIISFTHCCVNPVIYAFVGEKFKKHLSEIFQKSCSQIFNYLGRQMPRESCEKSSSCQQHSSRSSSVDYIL
T2 sequence (P51685 other isoform, or with tags, fused parts or gaps mutant): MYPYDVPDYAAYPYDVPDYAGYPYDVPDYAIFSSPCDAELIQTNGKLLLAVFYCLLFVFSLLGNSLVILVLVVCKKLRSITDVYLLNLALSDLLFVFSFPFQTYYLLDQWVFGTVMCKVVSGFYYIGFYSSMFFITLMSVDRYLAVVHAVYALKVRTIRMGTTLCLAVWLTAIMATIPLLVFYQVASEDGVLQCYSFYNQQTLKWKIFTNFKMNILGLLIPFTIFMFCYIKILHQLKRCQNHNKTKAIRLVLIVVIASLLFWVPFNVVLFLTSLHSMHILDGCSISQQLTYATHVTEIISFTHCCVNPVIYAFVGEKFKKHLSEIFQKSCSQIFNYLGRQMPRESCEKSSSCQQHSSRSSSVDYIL

B1: VHH-74 (VHH)
VHH: EVQLVESGGGLVQPGGSLRLSCAASGSTFSIKSIGWYRQAPGKQRELVADITRGAGINYADSVKGRFTISRDNTKNTMYLQMNSLRPEDTAVYYCNVKTIKRTGGIMTGSKIEYDYWGQGTLVTVSS
notes: Monovalent VHH purified from E. coli periplasm by IMAC; not shown: C-terminal FLAG3 and His6 tags
Consider B1, for which the binding result with human CCR8 [1] was “binds”.

B2: VHH-125 (VHH)
VHH: DVQLVESGGGLVQPGGSLRLSCAASGSTFSIKSIGWYRQAPGKQRELVADITRGAGINYADSVKGRFTISRDNAKNTVYLQMNSLRPEDTAVYYCNVKTIKRTGGILTGSKIEYDYWGQGTLVTVSS
notes: also called VHH-74 E1D, T74A, M78V, M107L; not shown: C-terminal His6 tag (no FLAG3)
As for B2, the binding result with human CCR8 [2] is “binds”.

B3: VHH-114 (VHH)
VHH: DVQLVESGGGLVQPGGSLRLSCAASRSIYNVLAMGWYRQAPGKERELVAVVWSSGNTNYADSVKGRFTISRDNAKNTVYLQMNSLRPEDTAVYYCYSKSLIGTSRYEIWGQGTLVTVSS
notes: 'V691' is printed, probably V69I; also called VHH-56 E1D, M32L, V691; not shown: C-terminal His6 tag (no FLAG3)
For B3, the binding result in the test with human CCR8 [3] is “binds”.

B4: VHH-56 (VHH)
VHH: EVQLVESGGGLVQPGGSLRLSCAASRSIYNVMAMGWYRQAPGKERELVAVVWSSGNTNYADSVKGRFTVSRDNAKNTVYLQMNSLRPEDTAVYYCYSKSLIGTSRYEIWGQGTLVTVSS
notes: Monovalent VHH purified from E. coli periplasm by IMAC; PelB signal peptide is removed on export; not shown: C-terminal FLAG3 and His6 tags
As for B4, the binding result (in test [4]; with human CCR8 [5]) was “binds” each time.

B5: VHH-115 (VHH)
VHH: DVQLVESGGGLVQPGGSLRLSCAASRSIYNVRAMGWYRQAPGKERELVAVVWSSGNTNYADSVKGRFTISRDNAKNTVYLQMNSLRPEDTAVYYCYSKSLIGTSRYEIWGQGTLVTVSS
notes: 'V691' is printed, probably V69I; also called VHH-56 E1D, M32R, V691; not shown: C-terminal His6 tag (no FLAG3)
With B5, the binding result with human CCR8 [3] is “binds”.

B6: VHH-65 (VHH)
VHH: EVQLVESGGGLVQPGGSLRLSCAASGRAFSSYNMGWFRQAPGKERDFVATISSSGTNYANSVKGRFTISRDNAKNTVYLQMNSLRPEDTAVYYCNAKTVTRTGGVITGSRIEYDYWGQGTLVTVSS
notes: as for B1
Take B6: the binding result (in test [4]; in the test with human CCR8 [5]) was “binds” each time.

B7: VHH-89 (VHH)
VHH: DVQLVESGGGLVQPGGSLRLSCAASGRAFSSYNMGWFRQAPGKEREFVATISSSGTNYADSVKGRFTISRDNAKNTVYLQMNSLRPEDTAVYYCNAKTVTRTGGVITGSRIEYDYWGQGTLVTVSS
notes: also called VHH-65 E1D, D46E, N60D; not shown: C-terminal His6 tag (no FLAG3)
Take B7: the binding result in the test with human CCR8 [6] is “binds”.
